Changes are numbered by the printed parent chain.
B1: E16 (designed binder)
chain: EVVAATPTSLLISWRHPHFPTRYYRITYGETGGNSPVQEFTVPLQPPTATISGLKPGVDYTITGYAVTVEENGRQLMTPISINYRT
notes: 10Fn3 clone, Del 1-8
B2: G2 (designed binder)
chain: B1 chain with V69L, E71R, G73N, Q75E, M77L
notes: 10Fn3 clone, Del 1-8
B3: E17 (designed binder)
chain: B1 chain with Q75V, M77N
notes: 10Fn3 clone, Del 1-8
B4: EGE9 (designed binder)
chain: B1 chain with V69F, E70G, E71P, G73D, Q75E, M77L
notes: 10Fn3 clone, Del 1-8
B5: F3 (designed binder)
chain: B1 chain with E71R, N72D, Q75K, M77Y
notes: 10Fn3 clone, Del 1-8
B6: G4 (designed binder)
chain: B1 chain with V69I, E71K, Q75H, M77N, T78I
notes: 10Fn3 clone, Del 1-8
B7: FE (designed binder)
chain: B1 chain with E71R, N72D, Q75E, M77N, T78I
B8: EGE11 (SEQ ID NO 87) (designed binder)
chain: B1 chain with V69M, E70G, E71K, G73D, Q75E, M77L
B9: EGE5 (designed binder)
chain: B1 chain with V69L, E71R, Q75V, M77N
notes: 10Fn3 clone, Del 1-8
B10: G3 (designed binder)
chain: B1 chain with V69M, E71R, N72S, Q75E
notes: 10Fn3 clone, Del 1-8
B11: F4 (designed binder)
chain: B1 chain with E71R, N72D, Q75T, M77R
notes: 10Fn3 clone, Del 1-8
B12: F7 (designed binder)
chain: B1 chain with E71H, Q75V, M77N, T78I
notes: 10Fn3 clone, Del 1-8
B13: F8 (designed binder)
chain: B1 chain with E71H, Q75T, L76S, M77F
notes: 10Fn3 clone, Del 1-8
B14: E24 (designed binder)
chain: B1 chain with E71R, G73D, Q75V, M77F
notes: 10Fn3 clone, Del 1-8
B15: EGE10 (designed binder)
chain: B1 chain with V69M, E70G, E71P, G73D, Q75E, M77L
notes: 10Fn3 clone, Del 1-8
B16: EGE11 (SEQ ID NO 72) (designed binder)
chain: B1 chain with V69F, E70G, E71W, G73D, Q75E, M77L, T78I
B17: E21 (designed binder)
chain: B1 chain with V69W, E70G, E71Y, N72K, G73D, R74H, Q75E, M77L, T78I
notes: 10Fn3 clone, Del 1-8
B18: EGE1 (designed binder)
chain: B1 chain with V69L, E71R, Q75K
notes: 10Fn3 clone, Del 1-8
B19: EGE3 (designed binder)
chain: B1 chain with E71R, M77Y
notes: 10Fn3 clone, Del 1-8
B20: EGE2 (designed binder)
chain: B1 chain with E71R
notes: 10Fn3 clone, Del 1-8
B21: E20 (designed binder)
chain: B1 chain with E71R, R74Q, Q75V, M77Y
notes: 10Fn3 clone, Del 1-8
B22: F6 (designed binder)
chain: B1 chain with E71Q, Q75V
notes: 10Fn3 clone, Del 1-8
B23: EGE8 (designed binder)
chain: B1 chain with E71R, G73E, Q75V
notes: 10Fn3 clone, Del 1-8
B24: EGE7 (designed binder)
chain: B1 chain with V69L, E71R, G73D, Q75V, M77L
notes: 10Fn3 clone, Del 1-8
B25: F10 (designed binder)
chain: B1 chain with V69M, E70A, E71P, Q75E, M77L
notes: 10Fn3 clone, Del 1-8
B26: EGE4 (designed binder)
chain: B1 chain with E71R, Q75V, M77N
notes: 10Fn3 clone, Del 1-8
B27: E27 (designed binder)
chain: B1 chain with E71R, R74H, Q75T
notes: 10Fn3 clone, Del 1-8
B28: F1 (designed binder)
chain: B1 chain with V69S, E70G, E71R, G73D, Q75E, M77L, T78V
notes: 10Fn3 clone, Del 1-8
B29: F9 (designed binder)
chain: B1 chain with E71P, Q75V, M77N
notes: 10Fn3 clone, Del 1-8
B30: F11 (designed binder)
chain: B1 chain with E71Q, Q75V, M77N
notes: 10Fn3 clone, Del 1-8
B31: EGE6 (designed binder)
chain: B1 chain with V69L, E71R, Q75L, M77N
notes: 10Fn3 clone, Del 1-8
B32: E22 (designed binder)
chain: B1 chain with V69L, E70G, E71R, G73D, Q75E, M77L
notes: 10Fn3 clone, Del 1-8
B33: E23 (designed binder)
chain: EVVAATPTSLLISWRHHPHFPTRYYRITYGETGGNSPVQEFTVPLQPPTATISGLKPGVDYTITGYAVTVHWNGRELMTPISINYRT
notes: 10Fn3 clone, Del 1-8
B34: 2C6 PR3 (designed binder)
chain: VSDVPRDLEVVAATPTSLLISWRHPHFPTRYYRITYGETGGNSPVQEFTVPLQPPTATISGLKPGVDYTITGYAVTVEPNGHKLAIPISINYRT
notes: tag left out
B35: 2F10 PR3 (designed binder)
chain: B34 chain with V77L, E78A, P79L, N80F, G81D, K83E, A85L, I86T
notes: tag left out
B36: 2C9 PR3 (designed binder)
chain: B34 chain with V77E, E78A, H82R, K83E, A85R, I86T
notes: tag left out
B37: 2G12 PR3 (designed binder)
chain: B34 chain with V77S, E78G, P79Q, G81D, K83A, A85L
notes: tag left out
B38: 2C12 PR3 (designed binder)
chain: B34 chain with V77D, E78A, P79Q, G81V, H82Q, K83A, L84P, A85I, I86A, P87Q
notes: tag left out
B39: 2G9 PR3 (designed binder)
chain: B34 chain with V77E, E78I, P79Y, G81D, K83E, A85M, I86T
notes: tag left out
B40: 2F3 PR3 (designed binder)
chain: B34 chain with V77L, E78S, P79H, N80Y, H82K, K83E, A85R, I86T
notes: tag left out
B41: 2D12 PR3 (designed binder)
chain: B34 chain with V77E, E78G, P79W, N80I, G81D, K83E, L84I, A85M
notes: tag left out

Key:
[1] = target: T1, mouse vascular endothelial growth factor receptor-2 Fc chimera (Flk-1-Fc) (mouse, UniProt P35918 20-762); assay: radioactive equilibrium binding assay, 1 nM Flk-1-Fc, % of input bound
T1 construct: Bought from R&D Systems; also called mouse VEGFR-2; not shown: Fc part of the purchased chimera, not specified
Procedure: (§1) To prepare ³⁵S-labeled binding proteins for analysis, mRNA was prepared as described above for RNA-protein fusion production but the linker ligation step was omitted. The mRNA was expressed using rabbit reticulocyte lysate translation kit (Ambion) in the presence of ³⁵S-labeled Met at 30° C. for 1 hour. Expressed protein was purified on M2-agarose Flag beads (Sigma) as described above. This procedure produced the encoded protein without the nucleic acid tail. In a direct binding assay, VEGF-R2-Fc fusions in concentrations ranging from 0 to 200 nM were added to a constant concentration of the purified protein (0.2 or 0.5 nM) and incubated at 30° C. for 1 hour in buffer B. The receptor-binder complexes were captured using Protein A magnetic beads for another 10 minutes at room temperature using a Kingfisher™ The beads were washed with six reaction volumes of buffer B. The protein was eluted from the beads with 100 μL of 0.1 M KOH. […] of the reaction mixture and elution were dried onto a LumaPlate-96 (Packard) and the amount of ³⁵S on the plate was measured using a TopCount NXT instrument (Packard). The amount of fibronectin-based scaffold protein bound to the target was estimated as a percent of radioactivity eluted from Protein A magnetic beads compare to radioactivity in the reaction mixture. Nonspecific binding of fibronectin-based scaffold proteins to the beads was determined by measuring binding in the absence of KDR-Fc and represented less than 1-2% of the input. Specific binding was obtained through subtraction of nonspecific binding from total binding. Data was analyzed using the GraphPad Prizm software (GraphPad Software, Inc, San Diego, Calif.), fitted using a one site, non-linear binding equation.

[2] = target: T2, human vascular endothelial growth factor receptor-2 Fc chimera (KDR-Fc) (human, UniProt P35968 20-764); assay: radioactive equilibrium binding assay, 1 nM KDR-Fc, % of input bound
T2 construct: range 1-764; also called human VEGFR-2; not shown: human IgG1 Fc
Procedure: as §1
T2 sequence (P35968 20-764 limits assumed, change not shown, form in doubt): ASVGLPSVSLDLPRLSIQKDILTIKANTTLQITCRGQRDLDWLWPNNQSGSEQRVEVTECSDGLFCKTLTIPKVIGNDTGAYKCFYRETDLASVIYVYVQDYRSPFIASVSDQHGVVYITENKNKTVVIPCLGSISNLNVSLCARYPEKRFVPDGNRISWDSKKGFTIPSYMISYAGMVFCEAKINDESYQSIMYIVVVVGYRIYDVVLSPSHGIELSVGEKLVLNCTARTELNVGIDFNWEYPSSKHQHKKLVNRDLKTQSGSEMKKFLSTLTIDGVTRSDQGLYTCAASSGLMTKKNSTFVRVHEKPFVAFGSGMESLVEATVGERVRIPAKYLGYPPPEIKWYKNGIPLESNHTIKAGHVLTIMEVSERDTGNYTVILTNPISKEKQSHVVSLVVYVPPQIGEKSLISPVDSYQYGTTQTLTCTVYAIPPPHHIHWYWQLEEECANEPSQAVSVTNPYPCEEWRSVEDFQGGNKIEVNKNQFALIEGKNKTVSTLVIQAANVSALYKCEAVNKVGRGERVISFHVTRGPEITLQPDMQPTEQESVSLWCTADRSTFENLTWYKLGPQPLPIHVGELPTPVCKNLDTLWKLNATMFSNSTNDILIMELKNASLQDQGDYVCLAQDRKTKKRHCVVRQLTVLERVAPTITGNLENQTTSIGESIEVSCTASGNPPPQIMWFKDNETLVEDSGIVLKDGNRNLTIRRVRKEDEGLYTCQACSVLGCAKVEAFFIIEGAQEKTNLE

[3] = target: T3, human vascular endothelial growth factor receptor-2 Fc chimera (KDR-Fc) (human, UniProt P35968 20-764); assay: radioactive equilibrium binding, 1 nM KDR-Fc
T3 construct: range 1-764; purchased from R&D Systems; also called hKDR; human VEGF-R2-Fc; not shown: human IgG1 Fc
Outline: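 Receptor-Fc fusions titrated from 0 to 200 nM against a fixed 0.2 or 0.5 nM of ³⁵S-labeled scaffold protein for 1 h at 30° C. Protein A bead pull-down followed by scintillation counting of eluate versus reaction mixture. Specific binding is total minus no-receptor binding, fitted to a one-site nonlinear equation.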
T3 sequence (P35968 20-764 limits assumed, change not shown, form in doubt): as above

T1 sequence (P35918 20-762, change not shown): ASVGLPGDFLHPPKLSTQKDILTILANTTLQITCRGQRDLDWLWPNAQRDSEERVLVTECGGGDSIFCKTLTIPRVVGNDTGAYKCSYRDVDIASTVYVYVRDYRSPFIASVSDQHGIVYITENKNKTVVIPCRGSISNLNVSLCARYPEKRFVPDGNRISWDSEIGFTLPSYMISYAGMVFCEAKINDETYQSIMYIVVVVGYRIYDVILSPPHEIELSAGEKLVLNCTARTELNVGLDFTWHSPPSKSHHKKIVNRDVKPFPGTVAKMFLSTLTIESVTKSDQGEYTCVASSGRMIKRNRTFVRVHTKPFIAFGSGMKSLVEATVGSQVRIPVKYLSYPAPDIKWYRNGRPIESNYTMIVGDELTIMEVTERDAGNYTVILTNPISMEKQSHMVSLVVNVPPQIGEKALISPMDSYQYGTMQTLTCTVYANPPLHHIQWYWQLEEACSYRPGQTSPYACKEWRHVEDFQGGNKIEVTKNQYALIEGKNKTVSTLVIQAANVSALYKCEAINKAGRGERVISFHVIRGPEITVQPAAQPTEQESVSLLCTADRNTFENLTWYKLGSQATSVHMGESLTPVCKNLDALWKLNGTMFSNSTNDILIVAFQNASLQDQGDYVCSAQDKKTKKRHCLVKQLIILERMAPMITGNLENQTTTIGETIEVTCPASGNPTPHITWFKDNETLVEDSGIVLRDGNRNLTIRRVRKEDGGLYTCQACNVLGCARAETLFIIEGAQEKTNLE

Row | Binder | Binding to 1 nM Flk-1, % [1] [%] | Binding to 1 nM KDR, % [2] [%] | Binding to 1 nM KDR, % [3] [%]
1 | B1 | 0 | 35 | 
2 | B2 | 9 | 25 | 
3 | B3 | 10 | 32 | 
4 | B4 | 1 | 32 | 
5 | B5 | 15 | 27 | 
6 | B6 | 12 | 21 | 
7 | B7 | 8 | 12 | 
8 | B8 | 1 | 32 | 
9 | B9 | 47 | 32 | 
10 | B10 | 10 | 28 | 
11 | B11 | 18 | 31 | 
12 | B12 | 7 | 30 | 
13 | B13 | 13 | 33 | 
14 | B14 | 29 | 24 | 
15 | B15 | 1 | 37 | 
16 | B16 | 0 | 50 | 
17 | B17 | 1 | 47 | 
18 | B18 | 29 | 30 | 
19 | B19 | 38 | 34 | 
20 | B20 | 33 | 42 | 
21 | B21 | 11 | 43 | 

Row | Binder | Binding to 1 nM Flk-1, % [1] [%] | Binding to 1 nM KDR, % [2] [%] | Binding to 1 nM KDR, % [3] [%]
22 | B22 | 2 | 37 | 
23 | B23 | 20 | 26 | 
24 | B24 | 30 | 31 | 
25 | B25 | 1 | 29 | 
26 | B26 | 41 | 26 | 
27 | B27 | 9 | 37 | 
28 | B28 | 2 | 18 | 
29 | B29 | 23 | 32 | 
30 | B30 | 8 | 20 | 
31 | B31 | 40 | 33 | 
32 | B32 | 3 | 45 | 
33 | B33 | 7 | 36 | 
34 | B34 |  |  | 5
35 | B35 |  |  | 3
36 | B36 |  |  | 7
37 | B37 |  |  | 6
38 | B38 |  |  | 6
39 | B39 |  |  | 9
40 | B40 |  |  | 8
41 | B41 |  |  | 14
